Test results: patent publication US20240287172A1 (SCIRHOM, published 2024)
Numbering of substitutions follows the chain as printed.

T1: human iRhom1, endogenously expressed (human, UniProt Q96CC6 1-855)
T1 construct: also called iRhom1 on RH-30 cells
T1 sequence: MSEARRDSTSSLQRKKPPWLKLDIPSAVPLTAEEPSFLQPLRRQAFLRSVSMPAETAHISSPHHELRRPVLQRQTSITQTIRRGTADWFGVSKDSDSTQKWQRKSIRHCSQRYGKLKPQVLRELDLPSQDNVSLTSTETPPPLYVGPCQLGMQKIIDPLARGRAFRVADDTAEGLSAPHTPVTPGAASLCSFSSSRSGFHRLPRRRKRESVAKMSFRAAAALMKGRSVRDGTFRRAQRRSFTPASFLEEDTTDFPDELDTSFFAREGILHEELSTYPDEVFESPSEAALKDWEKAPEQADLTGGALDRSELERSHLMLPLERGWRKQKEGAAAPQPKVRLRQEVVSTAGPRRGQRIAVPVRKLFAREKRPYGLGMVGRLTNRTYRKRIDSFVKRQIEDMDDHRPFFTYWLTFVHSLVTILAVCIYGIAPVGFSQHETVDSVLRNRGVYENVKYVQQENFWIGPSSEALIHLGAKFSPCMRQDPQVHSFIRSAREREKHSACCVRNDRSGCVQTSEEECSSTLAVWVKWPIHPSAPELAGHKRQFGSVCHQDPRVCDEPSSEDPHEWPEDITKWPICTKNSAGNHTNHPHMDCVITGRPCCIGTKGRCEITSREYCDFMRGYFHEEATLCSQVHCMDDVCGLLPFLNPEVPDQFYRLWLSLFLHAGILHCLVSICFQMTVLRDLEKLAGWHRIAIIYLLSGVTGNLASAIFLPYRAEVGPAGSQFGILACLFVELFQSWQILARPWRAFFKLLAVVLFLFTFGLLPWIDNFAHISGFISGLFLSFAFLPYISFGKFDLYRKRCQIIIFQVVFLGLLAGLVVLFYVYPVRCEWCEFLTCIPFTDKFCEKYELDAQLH

T2: miR2-FL-WT-T7 (mouse, UniProt Q80WQ6 1-827)
T2 construct: on MEF-DKO cells
T2 sequence: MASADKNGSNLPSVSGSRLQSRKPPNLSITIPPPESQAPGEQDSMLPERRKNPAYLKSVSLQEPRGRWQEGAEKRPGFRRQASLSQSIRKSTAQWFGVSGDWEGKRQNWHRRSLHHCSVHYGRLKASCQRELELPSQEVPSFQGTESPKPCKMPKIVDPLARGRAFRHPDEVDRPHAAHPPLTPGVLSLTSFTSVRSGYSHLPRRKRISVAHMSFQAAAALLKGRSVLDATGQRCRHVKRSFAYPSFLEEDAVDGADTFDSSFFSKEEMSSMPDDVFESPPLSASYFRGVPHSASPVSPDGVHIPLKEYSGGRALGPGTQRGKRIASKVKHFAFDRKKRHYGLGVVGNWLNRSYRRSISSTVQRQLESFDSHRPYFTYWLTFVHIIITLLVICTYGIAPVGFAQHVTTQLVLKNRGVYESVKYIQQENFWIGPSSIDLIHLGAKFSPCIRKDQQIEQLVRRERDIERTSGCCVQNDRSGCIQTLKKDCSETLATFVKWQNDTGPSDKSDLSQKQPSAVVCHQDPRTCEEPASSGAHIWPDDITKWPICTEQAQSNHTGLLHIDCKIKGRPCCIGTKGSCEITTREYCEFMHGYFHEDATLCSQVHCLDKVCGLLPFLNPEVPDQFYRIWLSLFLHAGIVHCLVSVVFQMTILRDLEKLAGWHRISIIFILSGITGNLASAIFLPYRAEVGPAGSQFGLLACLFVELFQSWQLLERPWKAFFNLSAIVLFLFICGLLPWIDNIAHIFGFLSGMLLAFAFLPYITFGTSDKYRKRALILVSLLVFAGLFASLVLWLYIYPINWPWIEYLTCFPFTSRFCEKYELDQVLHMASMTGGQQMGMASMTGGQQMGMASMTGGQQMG

B1: antibody 16 (antibody, V domains shown)
VH: QVTLKESGPGILQPSQTLSLTCSFSGFSLSTFALGVGWIRQPSGRGLEWLAHIWWDDDKYYNPALKSRLTISKDTSKNHVFLKIANVDTADTATYYCARITTYYYGMDYWGQGTSVTVSS
VL: DIVLSQSPATLSVTPGDSVSLFCRASQSIGNHLHWYQQESHASPRLLIKYASQSISGIPSRFSGSGSGTDFTLSINSVETEDFGMYFCQQSYNWPLTFGAGTKLELK
notes: mouse IgG, kappa light chain; also called clone #16; purified antibody 16
B2: antibody 3 (antibody, V domains shown)
VH: QVTLKESGPGILQPSQTLSLTCSFSGFSLTTFAMGIGWVRQPSGKGLEWLAHIWWDGEKYNNPVLKSRLTISKDTSKNQVFLRIANVDTPDTATYYCARISSIYYIIDNWGQGTSVTVSS
VL: B1 VL with S5T, D17H, F22S, G30S, H32N, Q38K, E39K, A42E, A51V
notes: mouse IgG, kappa light chain; also called clone #3; purified antibody 3

Assays:
[1] = biological target: T1, human iRhom1, endogenously expressed; experiment: FACS on RH-30 cells (iRhom1-positive, not iRhom2-positive)
miR2-FL-WT-T7 = biological target: T2, miR2-FL-WT-T7; experiment: FACS on MEF-DKO-miR2-FL-WT-T7 cells

Row | Binder | binding result [1] | binding result (miR2-FL-WT-T7)
1 | B1 | no binding (tested: 3 µg/ml) | –
2 | B2 | – | no binding (tested: 3 µg/ml)
